Source: IntAct's records for PubMed 17255092

B1: SWI/SNF complex subunit SMARCC1 (Mus musculus), P97496 (parent)
chain: MAATAGGGPGAAAGAVGAGGAAAASGLAVYRRKDGGPASKFWESPDTVSQLDSVRVWLGKHYKKYVHADAPTNKTLAGLVVQLLQFQEDAFGKHVTNPAFTKLPAKCFMDFKAGGTLCHILGAAYKYKNEQGWRRFDLQNPSRMDRNVEMFMNIEKTLVQNNCLTRPNIYLIPDIDLKLANKLKDIIKRHQGTFTDEKSKASHHIYPYPSSQEDEEWLRPVMRRDKQVLVHWGFYPDSYDTWVHSNDVDAEIEDAPIPEKPWKVHVKWILDTDVFNEWMNEEDYEVDENRKPVSFRQRISTKNEEPVRSPERRDRKASANSRKRKPSPSPPPPTATESRKKSGKKGQASLYGKRRSQKEEDEQEDLTKDMEDPTPVPNIEEVVLPKNVNPKKDSENTPVKGGTVADLDEQDEEAVTTGGKEDEDPSKGDPSRSVDPGEDNVTEQTNHIIIPSYASWFDYNCIHVIERRALPEFFNGKNKSKTPEIYLAYRNFMIDTYRLNPQEYLTSTACRRNLTGDVCAVMRVHAFLEQWGLVNYQVDPESRPMAMGPPPTPHFNVLADTPSGLVPLHLRSPQVPAAQQMLNFPEKNKEKPIDLQNFGLRTDIYSKKTLAKSKGASAGREWTEQETLLLLEALEMYKDDWNKVSEHVGSRTQDECILHFLRLPIEDPYLENSDASLGPLAYQPVPFSQSGNPVMSTVAFLASVVDPRVASAAAKAALEEFSRVREEVPLELVEAHVKKVQEAARASGKVDPTYGLESSCIAGTGPDEPEKLEGSEEEKMETDPDGQQPEKAENKVENESDEGDKIQDRENEKNTEKEQDSDVSEDVKPEEKENEENKELTDTCKERESDAGKKKVEHEISEGNVATAAAAALASAATKAKHLAAVEERKIKSLVALLVETQMKKLEIKLRHFEELETIMDREKEALEQQRQQLLTERQNFHMEQLKYAELRARQQMEQQQQHGQTPQQAHQHTGGPGMAPLGATGHPGMMPHQQPPPYPLMHHQMPPPHPPQPGQIPGPGSMMPGQPMPGRMIPAVAANIHPTGSGPTPPGMPPMPGNILGPRVPLTAPNGMYPPPPQQQQPPPPADGVPPPPAPGPPASATP

Variants of: B1
Conditions: with snf5_mouse Smarcb1, Q9Z0H3
Chain of snf5_mouse Smarcb1, Q9Z0H3 (Q9Z0H3 whole entry): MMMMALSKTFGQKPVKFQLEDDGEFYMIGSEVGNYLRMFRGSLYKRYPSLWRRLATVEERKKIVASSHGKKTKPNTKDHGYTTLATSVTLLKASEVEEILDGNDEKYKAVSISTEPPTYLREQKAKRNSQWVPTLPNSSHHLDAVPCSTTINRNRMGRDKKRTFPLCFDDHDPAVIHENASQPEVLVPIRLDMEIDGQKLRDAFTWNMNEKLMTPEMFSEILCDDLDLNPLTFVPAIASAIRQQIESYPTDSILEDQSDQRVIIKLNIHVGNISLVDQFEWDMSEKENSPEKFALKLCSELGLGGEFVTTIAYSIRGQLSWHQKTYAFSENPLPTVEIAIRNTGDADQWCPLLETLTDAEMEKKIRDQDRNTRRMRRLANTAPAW

| effect of a mutation on the interaction | Variant |
| --- | --- |
| decreasing interaction | L533A |
| decreasing interaction | N535A |
| disrupting interaction | L533A;N535A |

Variants of: B1
Conditions: with snf5_mouse Smarcb1, Q9Z0H3
Remark: another data set of the same source

| effect of a mutation on the interaction | Variant |
| --- | --- |
| disrupting interaction strength | L533A;N535A |
